Here are results for 5 compounds from patent US11078246B2, “Peptides binding to Bfl-1” (Dana-Farber Cancer Institute, Inc., priority 2015, dated 2021).

Positions count from the first letter of the chain named. Positions of bridges follow the written chain, without caps; N, C: chain ends. Non-standard residues stand in square brackets, D forms with d. No end group written: not given here. S5 = C=CCCC[C@](C)(N)C(=O)O

The target in assay [1] is T1, Bfl-1 (Homo sapiens, UniProt Q16548).
T1 sequence (Q16548 1-175): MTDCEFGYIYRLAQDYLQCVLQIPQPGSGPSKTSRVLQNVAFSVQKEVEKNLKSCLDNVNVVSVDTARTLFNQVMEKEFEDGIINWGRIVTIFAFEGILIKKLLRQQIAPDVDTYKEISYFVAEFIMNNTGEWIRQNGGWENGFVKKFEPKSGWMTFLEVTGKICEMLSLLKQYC
The experiment in a line: Bfl-1:Warhead SAHB conjugation assay. The assay is classed as binding. As to conditions: conjugation with Bfl-1. Here is the method:
Proteins were serially diluted from 1 μM, then combined with FITC-labeled SAHB and polarization measured at 5 min on a microplate reader. We then calculated dissociation constants (KD) by nonlinear regression analysis of dose-response curves. […] Samples were then combined with loading dye, run on a 12% Bis-Tris SDS-PAGE, and stained with Coomassie. The same setup was used for all antiapoptotic proteins tested.

Assay [2] has as its target T1, Bfl-1. Briefly: Competitive binding assay after pre-forming the Bfl-1:NOXA disulfide bond. As to conditions: Bfl-1:NOXA disulfide bond pre-formed. The procedure: The functional impact of the Bfl-1:NOXA disulfide bond formation was evaluated using competitive binding assays and liposomal release assays.
Assay [3] deals with T2, BFL-1ΔC (Homo sapiens, UniProt Q16548).
T2 construct: cDNA encoding BFL-1ΔC (aa 1-153) was cloned into the pET19b expression vector; made in house; host or cells: Escherichia coli BL21(DE3) LOBSTR
T2 sequence (Q16548 1-153): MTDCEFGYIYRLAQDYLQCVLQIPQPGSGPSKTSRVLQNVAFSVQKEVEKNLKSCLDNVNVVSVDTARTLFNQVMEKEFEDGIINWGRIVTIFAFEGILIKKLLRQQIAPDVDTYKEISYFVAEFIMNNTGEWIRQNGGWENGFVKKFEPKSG
The experiment in a line: In vitro covalent conjugation assay (DTT reduction, GSSG oxidation). The assay is classed as binding. The conditions noted are these: DTT 10 mM then GSSG 12 mM; Coomassie, FITC scan. The procedure:
(§1) Biolayer Interferometry: Binding analyses of NOXA peptide interactions with BFL-1ΔC were performed on an Octet RED384 system (Fortebio, Menlo Park, Calif.) at 30° C. Super streptavidin (SSA) tips were prewetted in 1× kinetics buffer (PBS, pH 7.4, 0.01% BSA, 0.002% Tween-20) and then conjugated to NOXA SAHBs bearing an N-terminal biotin-PEG linker (10 μg/mL). Excess streptavidin was quenched by incubation with 2 μg/mL biocytin. The tips were then washed with kinetics buffer and soaked in a serial dilution of BFL-IAC for 10 min to measure association rate, followed by a 15 min incubation in kinetics buffer to measure dissociation rate. Dissociation constants were calculated using Octet Data Analysis version 9.0. […] After this incubation in a reducing environment, the mixture was diluted 5-fold into 50 mM Tris pH 8.0, 100 mM NaCl, 12 mM GSSG and incubated in the dark for an additional 30 min at RT. […] The gel was rinsed with water, subjected to FITC scan (Typhoon FLA 9500, GE Healthcare) and then Coomassie staining.

Assay [4] has as its target T1, Bfl-1. The experiment in a line: Liposomal release assay (Bfl-1 inhibition of BAX activation). The assay is classed as biochemical. The procedure: Fluorescence polarization assay: The solution-state equilibrium binding assay was used to determine binding affinities of the stapled peptides to the anti-apoptotic proteins. Proteins were serially diluted from 1 μM, then combined with FITC-labeled SAHB and polarization measured at 5 min on a microplate reader. We then calculated dissociation constants (KD) by nonlinear regression analysis of dose-response curves. Bfl-1:NOXA conjugation assay: The conjugation assay was developed to test for disulfide bond formation in a non-reducing environment, 3:1 FITC-stapled peptide:protein molar ratio was combined in the presence of DTT, then diluted and incubated with 1.2 molar excess GSSG. Samples were then run on non-reducing SDS-PAGE, scanned for fluorescence, then stained with Coomassie. […] ANTS release and dequenching due to DPX dissociation (F) was measured over a period of 120 min with an M1000 Infinite plate reader (Tecan) with excitation and emission wavelengths of 355 nm and 520 nm, respectively. Plates were read following liposome lysis with 1% Triton X-100 to determine maximal release (F100). Percent ANTS/DPX release was calculated as […]. […]

The next assay deals with T3, BCL-XLΔC (Homo sapiens, UniProt Q07817).
T3 construct: MCL-1ΔNΔC (aa 170-327) and BCL-XLΔC (aa 1-212) constructs were cloned into pGEX-4T-1; GST (N, cleaved yes); made in house; host or cells: Escherichia coli BL21(DE3)
T3 sequence (Q07817 1-212, stated change not applied): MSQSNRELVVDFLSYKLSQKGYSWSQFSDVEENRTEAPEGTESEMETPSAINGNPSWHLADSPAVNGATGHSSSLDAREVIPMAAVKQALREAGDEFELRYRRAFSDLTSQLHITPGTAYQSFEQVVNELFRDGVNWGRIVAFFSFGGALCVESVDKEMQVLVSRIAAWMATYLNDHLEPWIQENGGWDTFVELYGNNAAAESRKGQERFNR
Briefly: In vitro covalent conjugation assay (oxidizing conditions). The assay is classed as binding.

In assay [5] the target is T1, Bfl-1. Briefly: Bfl-1:NOXA conjugation assay (disulfide bond, GSSG oxidation). The assay is classed as binding. The conditions noted are these: non-reducing SDS-PAGE. The procedure:
Next, the impact of the Cys25 in NOXA was investigated. […] The distance between the sulfurs of the cysteine residues is 3.5 A according to the previously determined crystal structure of the bound proteins (PDB ID 3MQP). […] To examine the impact of Cys25 in NOXA on target interaction, we examined the binding of WT NOXA SAHB and NOXA C25S SAHB to Bfl-1 and to a variety of Bfl-1 cysteine mutants. In vitro conjugation assays were performed in order to verify the formation of the disulfide bond. Global reduction of the protein and the NOXA peptides, followed by the introduction of an oxidant such as GSSG led to production of a disulfide bond, shown as a 3 kDa shift on non-reducing SDS-PAGE (FIG. 4A). […] (FIG. 4A).
Fluorescence polarization assay: The solution-state equilibrium binding assay was used to determine binding affinities of the stapled peptides to the anti-apoptotic proteins. Proteins were serially diluted from 1 μM, then combined with FITC-labeled SAHB and polarization measured at 5 min on a microplate reader. We then calculated dissociation constants (KD) by nonlinear regression analysis of dose-response curves. […] Samples were then run on non-reducing SDS-PAGE, scanned for fluorescence, then stained with Coomassie. […] Plates were read following liposome lysis with 1% Triton X-100 to determine maximal release (F100). Percent ANTS/DPX release was calculated as […]. […]

A further assay concerns the target T4, GST-MCL-1ΔNΔC (Homo sapiens, UniProt Q07820).
T4 construct: MCL-1ΔNΔC (aa 170-327) and BCL-XLΔC (aa 1-212) constructs were cloned into pGEX-4T-1; made in house; host or cells: Escherichia coli BL21(DE3)
The experiment in a line: Streptavidin pull-down from anti-apoptotic protein mixture. The assay is classed as binding. As to conditions: 1:1:1:1 mixture, 1 μM each, biotinylated SAHB. The procedure: Streptavidin Pull-down: Recombinant His-BFL-1ΔC, BCL-XLΔC (tagless) and GST-MCL-1ΔNΔC (1 μM each) were combined and reduced with 3 mM DTT in PBS for 30 min at RT, and then incubated with 1 μM biotinylated SAHBA, SAHBA-3 or vehicle for 4 h at RT. The mixtures were then combined with PBS-washed high-capacity SA agarose (Thermo Fisher Pierce) and incubated with rotation for 2 h at RT. The beads were centrifuged at 3000 rpm, washed twice with NP-40 lysis buffer (1% NP40, 50 mM Tris pH 8.0, 100 mM NaCl, 2.5 mM MgCl2), once with PBS, and then bound protein eluted by boiling in 10% SDS containing 10 mg/mL biotin. Inputs (10%) and eluates were electrophoresed on a 12% Bis-Tris gel and then subjected to silver stain and imaging.

Assay [6] has as its target T5, BFL-1ΔC (Homo sapiens, UniProt Q16548, C19S/C4S).
T5 construct: cDNA encoding BFL-1ΔC (aa 1-153) was cloned into the pET19b expression vector; made in house; host or cells: Escherichia coli BL21(DE3) LOBSTR
T5 sequence (Q16548 1-153 C4S/C19S): T2 sequence (Q16548 1-153) with C4S, C19S
The experiment in a line: In vitro covalent conjugation assay (DTT reduction, GSSG oxidation). The assay is classed as binding. The conditions noted are these: Coomassie, FITC scan. The procedure: as §1

Assay [7] concerns the target T6, BFL-1ΔC (Homo sapiens, UniProt Q16548, C19S/C4S/C55S).
T6 construct: cDNA encoding BFL-1ΔC (aa 1-153) was cloned into the pET19b expression vector; made in house; host or cells: Escherichia coli BL21(DE3) LOBSTR
T6 sequence (Q16548 1-153 C4S/C19S/C55S): T2 sequence (Q16548 1-153) with C4S, C19S, C55S
The assay is described as above. The assay is classed as binding. As to conditions: Coomassie, FITC scan. Here is the method:
as §1

In a further assay the target is T7, MCL-1ΔNΔC (Homo sapiens, UniProt Q07820).
T7 construct: MCL-1ΔNΔC (aa 170-327) and BCL-XLΔC (aa 1-212) constructs were cloned into pGEX-4T-1; GST (N, cleaved yes); made in house; host or cells: Escherichia coli BL21(DE3)
T7 sequence (Q07820 170-327, stated change not applied): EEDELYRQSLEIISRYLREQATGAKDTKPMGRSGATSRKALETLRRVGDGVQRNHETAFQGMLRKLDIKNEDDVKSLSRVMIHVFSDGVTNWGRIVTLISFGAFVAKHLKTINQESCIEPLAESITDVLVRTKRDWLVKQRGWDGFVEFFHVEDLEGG
Briefly: In vitro covalent conjugation assay (oxidizing conditions). The assay is classed as binding.

T4 sequence (Q07820 170-327, stated change not applied): as above

Regarding `O=C(O)[C@H]1CCCCN1` [D-homoproline], at Bfl-1 [1], the “covalent binding efficiency (comparative)” value (“covalent binding efficiency” below) was “less efficient”.

Take `O=C(O)[C@@H]1CCCCN1` [L-homoproline]: at Bfl-1 [1], the “covalent binding efficiency” value is “less efficient”.

As for `CN(C)C/C=C/C(=O)O` [trans-4-dimethylaminocrotonic acid], on Bfl-1 [1], the “covalent binding efficiency” value is recorded as “less efficient”.

Consider “NOXA SAHBA C25S: stapled NOXA BH3 peptide with C25S substitution; SEQ ID NO:13 (AELEVESATQLR[S5]FGD[S5]LNFRQKLL; staple 13-17)”, for which, in the assay with Bfl-1 [2], the “availability of the Bfl-1 binding pocket to another FITC BH3 domain” value is on record as “abrogated these inhibitory effects”. For the same compound, the “molecular weight shift (disulfide adduct) of wild-type BFL-1ΔC” value with BFL-1ΔC [3] is given as “not”.

For the compound “NOXA SAHBA: stapled NOXA BH3 (aa 19-43), i, i+4 hydrocarbon staple replacing R31 and K35, native C25; SEQ ID NO:9 (AELEVECATQLR[S5]FGD[S5]LNFRQKLL; staple 13-17)”, in the assay with Bfl-1 [2], the “availability of the Bfl-1 binding pocket to another FITC BH3 domain” value is listed as “significantly decreased the availability of the Bfl-1 binding pocket”. The “anti-apoptotic effects of Bfl-1 on BAX” value is given as “almost completely abrogates the effects of Bfl-1” with Bfl-1 [4] (Bfl-1:NOXA disulfide bond formed prior to assay) and “somewhat inhibited” in the assay with Bfl-1 [4] (peptide added concurrently with Bfl-1). For the same compound, the “molecular weight shift or FITC labeling of BCL-XLΔC” value with BCL-XLΔC was “no molecular weight shift or FITC labeling”. In addition, the “covalent (disulfide) bond formation with Bfl-1, BCL-XL and MCL-1” value in the assay with Bfl-1 [5] is “only Bfl-1 forms a covalent bond”. Further, in the assay with GST-MCL-1ΔNΔC, the “MCL-1ΔNΔC engagement in SA pull-down” value is on record as “prominent non-covalent capture”. For the same compound, the “molecular weight shift (disulfide adduct) of wild-type BFL-1ΔC” value in the assay with BFL-1ΔC [3] is on record as “shift in the molecular weight”. Moreover, in the assay with BFL-1ΔC [6], the “disulfide adduct with BFL-1ΔC C4S/C19S (only C55 present)” value is on record as “molecular weight shift”. For the same compound, the “disulfide adduct with BFL-1ΔC C4S/C19S/C55S (lacks C55)” value with BFL-1ΔC [7] is reported as “no adduct”. Further, the “molecular weight shift or FITC labeling of MCL-1ΔNΔC” value with MCL-1ΔNΔC was “no molecular weight shift or FITC labeling”.
